{
  "source": "patent WO2018215614A1",
  "about": "(dated 2018)",
  "binders": {"B1": {"name": "anti-hGpa33/Rspo4 fusion protein (antibody, human IgG1, kappa)", "heavy": "EVQLLESGGGLVQPGGSLRLSCAASGFAFSTYDMSWVRQAPGKGLEWVATISSGGSYTYYLDSVKGRFTISRDSSKNTLYLQMNSLQAEDSAIYYCAPTTVVPFAYWGQGTLVTVSSASTKGPSVFPLAPSSKSTSGGTAALGCLVKDYFPEPVTVSWNSGALTSGVHTFPAVLQSSGLYSLSSVVTVPSSSLGTQTYICNVNHKPSNTKVDKKVEPKSCDKTHTCPPCPAPELLGGPSVFLFPPKPKDTLMISRTPEVTCVVVDVSHEDPEVKFNWYVDGVEVHNAKTKPREQYNSTYRVVSVLPVLHQDWLNGKEYKCKVSNKALPAPIEKTISKAKGQPREPQVYTLPPSREEMTKNQVSLTCLVKGFYPSDIAVEWESNGQPENNYKTTPPVLDSDGSFFLYSKLTVDKSRWQQGNVFSCSVMHEALHYHYTQKSLSLSPGKEAAAREAAAREAAAREAAARVGTGLGGNCTGCIICSEENGCSTCQQRLFLFIRREGIRQYGKCLHDCPPGYFGIRGQEVNRCKKCGATCESCFSQDFCIRCKRQFYLYKGKCLPTCPPGTLAHQNTRECQGE", "light": "DIQMTQSPSSLSVSVGDRVTITCKASQNVRTVVAWYQQKPGLAPKTLIYLASNRHTGVPSRFSGSGSGTDFTFTISSLQPEDIATYFCQQHWSYPLTFGQGTKVEVKRRTVAAPSVFIFPPSDEQLKSGTASVVCLLNNFYPREAKVQWKVDNALQSGNSQESVTEQDSKDSTYSLSSTLTLSKADYEKHKVYACEVTHQGLSSPVTKSFNRGEC"}},
  "target": "T1, mouse Gpa33 in which human Exon III had been substituted (mouse; human, UniProt Q9JKA5 22-70; Q99795 71-139; Q9JKA5 140-319, limits assumed)",
  "T1 sequence (looked up)": "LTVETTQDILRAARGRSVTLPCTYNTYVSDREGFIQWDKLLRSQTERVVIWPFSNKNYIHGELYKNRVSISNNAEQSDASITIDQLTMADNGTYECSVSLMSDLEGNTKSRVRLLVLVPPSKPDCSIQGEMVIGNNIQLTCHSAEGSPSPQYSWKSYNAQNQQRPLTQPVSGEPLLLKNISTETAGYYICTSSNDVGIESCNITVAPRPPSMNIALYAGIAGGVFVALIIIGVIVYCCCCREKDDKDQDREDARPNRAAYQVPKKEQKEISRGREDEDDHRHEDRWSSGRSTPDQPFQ",
  "experiment": "cell-based or functional assay",
  "data": [
    {"binder": "B1", "values": [
      {"measurement": "difference in cell viability (ATP-driven luciferase cell viability assay), humanized Gpa33 organoids against wildtype organoids, at 0.2 nM fusion protein", "value": 200, "unit": "fold"},
      {"measurement": "difference in cell viability (ATP-driven luciferase cell viability assay), humanized Gpa33 organoids against wildtype organoids, at 0.4 nM fusion protein", "value": 25, "unit": "fold"}
    ]}
  ]
}
